This note sets out measurements from publication PMC5958903.

The assay deals with brain-derived neurotrophic factor. The assay can be described thus: native gel or EMSA. Background: Mobility shift assays separate free from complexed probe on a gel.

Substance “soluble, recombinant extracellular domain of tropomyosin receptor kinase B (from UniProt Q16620 32-430)” gave a stoichiometry N (TrkB per BDNF dimer) of 1.
